According to patent US20090118184A1 (UNIVERSITY OF ROCHESTER, published 2009):
Numbering of substitutions follows the chain as printed.

Legend:
Assay in all cases: cell-based or functional assay
[1] = target: T1, factor VIIIa A1/A3C1C2 dimer, E287A (human, UniProt P00451 20-391; P00451 1709-2351)
T1 chain 1: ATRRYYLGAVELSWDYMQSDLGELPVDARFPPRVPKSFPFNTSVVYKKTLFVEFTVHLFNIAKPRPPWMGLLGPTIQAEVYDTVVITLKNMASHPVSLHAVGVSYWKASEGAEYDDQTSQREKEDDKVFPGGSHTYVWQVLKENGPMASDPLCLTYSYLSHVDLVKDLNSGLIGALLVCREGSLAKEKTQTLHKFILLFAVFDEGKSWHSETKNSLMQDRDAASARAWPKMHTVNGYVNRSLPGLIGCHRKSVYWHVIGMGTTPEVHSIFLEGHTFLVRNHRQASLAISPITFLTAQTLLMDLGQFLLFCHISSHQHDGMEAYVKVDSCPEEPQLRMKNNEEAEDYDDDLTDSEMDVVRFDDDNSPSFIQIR
T1 chain 2: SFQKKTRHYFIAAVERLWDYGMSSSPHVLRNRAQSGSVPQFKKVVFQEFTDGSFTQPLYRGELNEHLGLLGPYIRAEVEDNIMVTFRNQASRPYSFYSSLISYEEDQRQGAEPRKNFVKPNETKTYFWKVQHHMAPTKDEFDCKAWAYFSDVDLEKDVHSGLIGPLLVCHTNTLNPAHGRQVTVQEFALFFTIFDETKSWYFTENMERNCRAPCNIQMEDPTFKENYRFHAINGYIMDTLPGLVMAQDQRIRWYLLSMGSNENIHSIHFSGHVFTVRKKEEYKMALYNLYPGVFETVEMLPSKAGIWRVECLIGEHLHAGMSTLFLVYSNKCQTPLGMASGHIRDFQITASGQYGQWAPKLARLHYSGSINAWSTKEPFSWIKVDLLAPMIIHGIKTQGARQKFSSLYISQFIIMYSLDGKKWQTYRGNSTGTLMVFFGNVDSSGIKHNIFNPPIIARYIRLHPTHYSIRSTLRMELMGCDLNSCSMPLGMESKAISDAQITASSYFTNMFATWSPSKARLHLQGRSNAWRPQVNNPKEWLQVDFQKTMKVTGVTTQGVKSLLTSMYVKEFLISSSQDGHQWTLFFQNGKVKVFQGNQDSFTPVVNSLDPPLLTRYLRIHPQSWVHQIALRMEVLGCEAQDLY

[2] = target: T2, factor VIIIa A1/A3C1C2 dimer, D302A (human, UniProt P00451 20-391; P00451 1709-2351)
T2 chain 1: T1 chain 1 with A287E, D302A
T2 chain 2: T1 chain 2

[3] = target: T3, factor VIIIa A1/A3C1C2 dimer, R282A (human, UniProt P00451 20-391; P00451 1709-2351)
T3 chain 1: T1 chain 1 with R282A, A287E
T3 chain 2: T1 chain 2

[4] = target: T4, factor VIIIa A1/A3C1C2 dimer, S1949A (human, UniProt P00451 20-391; P00451 1709-2351)
T4 sequence 1: T1 chain 1 with A287E
T4 sequence 2: T1 chain 2 with S260A

B1: factor VIIIa A2 subunit, wild type (other)
chain: SVAKKHPKTWVHYIAAEEEDWDYAPLVLAPDDRSYKSQYLNNGPQRIGRKYKKVRFMAYTDETFKTREAIQHESGILGPLLYGEVGDTLLIIFKNQASRPYNIYPHGITDVRPLYSRRLPKGVKHLKDFPILPGEIFKYKWTVTVEDGPTKSDPRCLTRYYSSFVNMERDLASGLIGPLLICYKESVDQRGNQIMSDKRNVILFSVFDENRSWYLTENIQRFLPNPAGVQLEDPEFQASNIMHSINGYVFDSLQLSVCLHEVAYWYILSIGAQTDFLSVFFSGYTFKHKMVYEDTLTLFPFSGETVFMSMENPGLWILGCHNSDFRNRGMTALLKVSSCDKNTGDYYEDSYEDISAYLLSKNNAIEPR
Factor VIIIa decay rate relative to wild type, FIXa (+) [1]: 0.78 relative to wild type
Factor VIIIa decay rate, FIXa (+) [1]: 0.0088 min⁻¹
Factor VIIIa decay rate relative to wild type, FIXa (+) [2]: 0.43 relative to wild type
Factor VIIIa decay rate, FIXa (+) [2]: 0.0049 min⁻¹
Factor VIIIa decay rate relative to wild type, FIXa (+) [3]: 41.7 relative to wild type
Factor VIIIa decay rate relative to wild type, FIXa (-) [3]: 10.7 relative to wild type
Factor VIIIa decay rate, FIXa (+) [3]: 0.471 min⁻¹
Factor VIIIa decay rate, FIXa (-) [3]: 0.674 min⁻¹
Factor VIIIa decay rate relative to wild type, FIXa (+) [4]: 1.14 relative to wild type
Factor VIIIa decay rate, FIXa (+) [4]: 0.0129 min⁻¹
